The values below come from article doi:10.1101/546648 (bioRxiv, 2019).

The data set deals with the molecule itself. Briefly: crystal structure.

B1: Homo sapiens REXO2 (enzyme)
chain: MAAGESMAQRMVWVDLEMTGLDIEKDQIIEMACLITDSDLNILAEGPNLIIKQPDELLDSMSDWCKEHHGKSGLTKAVKESTITLQQAEYEFLSFVRQQTPPGLCPLAGNSVHEDKKFLDKYMPQFMKHLHYRIIDVSTVKELCRRWYPEEYEFAPKKAASHRALDDISESIKELQFYRNNIFKKKIDEKKRKIIENGENEKTVS
For B1, the binding result is on record as “binds”.
